Test results taken from paper PMC5345052, “Auto-phosphorylation Represses Protein Kinase R Activity” (Scientific Reports, 2017).

Biological target: the molecule itself
Assay: liquid chromatography; recombinant PKR isolated during purification as separate monomer and dimer species

B1: PKR K296R-S33E-T42E, recombinant His-tagged full-length protein kinase R (enzyme, human, UniProt P19525 1-551, looked up)
chain: MAGDLSAGFFMEELNTYRQKQGVVLKYQELPNEGPPHDRRFEFQVIIDGREFPEGEGRSKKEAKNAAAKLAVEILNKEKKAVSPLLLTTTNSSEGLSMGNYIGLINRIAQKKRLTVNYEQCASGVHGPEGFHYKCKMGQKEYSIGTGSTKQEAKQLAAKLAYLQILSEETSVKSDYLSSGSFATTCESQSNSLVTSTLASESSSEGDFSADTSEINSNSDSLNSSSLLMNGLRNNQRKAKRSLAPRFDLPDMKETKYTVDKRFGMDFKEIELIGSGGFGQVFKAKHRIDGKTYVIRRVKYNNEKAEREVKALAKLDHVNIVHYNGCWDGFDYDPETSDDSLESSDYDPENSKNSSRSKTKCLFIQMEFCDKGTLEQWIEKRRGEKLDKVLALELFEQITKGVDYIHSKKLIHRDLKPSNIFLVDTKQVKIGDFGLVTSLKNDGKRTRSKGTLRYMSPEQISSQDYGKEVDLYALGLILAELLHVCDTAFETSKFFTDLRDGIISDIFDKKEKTLLQKLLSKKPEDRPNTSEILRTLTVWKKSPEKNERHTC
notes: protein kinase R (PKR), human, full-length molecule with K296R and the phosphor-mimetic S33E and T42E; also called triple mutant; source: isolated by liquid chromatography as monomer and as dimer
  stoichiometry N: 2
